According to PMC4130213:

Tests used:
[1] = tested on: CovR (unphosphorylated) (Streptococcus pyogenes (M6 serotype, JRS4?)); assay: DNase I footprinting; details: not given in the material (DNase I protection assay details absent)
[2] = tested on: CovR-P (phosphorylated CovR) (Streptococcus pyogenes (M6 serotype, JRS4?)); assay: DNase I footprinting; details: not given in the material (DNase I protection assay details absent)

## Pska wild type
[1]
  binding signal: 3 µM
[2]
  binding signal: 0.25 µM
